Assay results as given in the RNAGym collection of RNA variant scans (doi:10.1073/pnas.2313332121).

B1: TPR t1 (parent)
chain: GACCAAUCUGCCCUCAGAGCUCGAGAACAUCUUCGGAUGCAGAGGAGGCAGGCUUCGGUGGCGCGAUAGCGCCAACGUCCUCAACCUCCAAUGCAUCCCACCACAUGAUGAUGCCUGAAGAGCCUUGGUUUUUUG

Variants of: B1
Assay: polymerase ribozyme fitness, log enrichment relative to wild type (log ratio); higher = more active; in vitro selection for triplet polymerase activity
Outline: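 Each subunit of a heterodimeric triplet polymerase ribozyme was represented by a PCR-built, transcribed mutant library that underwent triplicate single-round in vitro selection with frozen incubation at −7 °C. Extended constructs were recovered by gel excision, streptavidin-bead capture and RT-PCR, and Illumina sequencing of input and output libraries kept genotypes with ≥10 input reads and ≥1 read per output. Fitness is the logarithm of genotype enrichment relative to wild-type enrichment, from inverse-variance-weighted replicate averages, with a logarithm base of 2.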

Row | Variant | polymerase ribozyme fitness (log ratio)
1 | GACCAAUCUGCCCUCAGAGCUCGAGAACAUCUUCGGAUGCAGAGGAGGCAGGCUUCGGUGGCGCGAUAGCGCCAACGGCCUCAACCUCCAAUGCAUCCCACCACAUGAUGAUGCCUGAAGAGCCUUGAUUUUUUG | -1.19
2 | GACCAAUCUGCCCUCACAGCUCGAGAACAUCUUCGGAUGCAGAGGAGGCAGGCUUCGGUGGCGCGAUAGCGCCAACGUCCUCAACCUCCAAUGCAUCCCACCACAUGAUGAUACCUGAAGAGCCUUGGUUUUUUG | -6.34
3 | GACCUAUCUGCCCUCAGAGCUCGAGAACAUCUUCGGAUGCAGGGGAGGCAGGCUUCGGUGGCGCGAUAGCGCCAACGUCCUCAACCUCCAAUGCAUCCCACCACAUGAUGAUGCCUGAAGAGCAUUGGUUUUUUG | -0.815
4 | GACCAAUCUGCCCUCAGAGCUGGAGAACAUCUUCGGAUGCAGAGGAGGCAGGCUUUGGUGGCGCGAUAGCGCCAACGUCCUCAACCUCCAAUGCAUCCCACCAAAUGAUGAUGCCUGAAGAGCCUUGGUUUUUUG | -2.51
5 | GACCAAUCUGCCCUCAGAGCUCGAGAACAUCUUCGGAUGCAGAGGAGGCAGGCUUCGGUGGCGCGAUACCGUCAACGUCCUCAACCUCCAACGCAUCCCAUCACAUGAUGAUGCCUUAAGAGCCUUGGUUUUUUG | -5.11
6 | GACCAAUCUGUCCUCAGAGCUCGAGAACAUCUUCGGAUGCAGAGGAGGCAGGCUUCGGUGACGCGAUAGCGCCAACGUCCUCAACCUCCAAUGCAUCCCACCACGAGAUGAUGCCUGAAGAGCCUUGGUUUUUUG | -0.0724
7 | GACCAAUCUGCCAUCAGAGCUCGAGAACAUCUUCGGAUGCAGAGGAGGCAGUUUUCGGUGGCGCGAUAGCGCCAACGUCCUCAACCUCCAAUGCAUCCCACCACAUGAUGAUGCCUGAAGAGCCUUGGUUUUUUG | -3.61
8 | GACCAAUCUGCCCUCAGAGCUCGAGAACAUCUUCGGAUGCAGAGGAGGCAGGCUUCGGUGUCGCGAUAGCGCCAACGUCCUCAAGCUCCAAUGCAUCCCACCACAUGAUGAUGCCUGAAGAGCCUUCGUUUUUUG | -2.41
9 | GACCAAUCUGCCCUCAGAGCUCGAGAACAUCUUCGGAUGCAGAGGAGGCAGGCUUCGGUGGCGCGAUAGCGCCAACGUCCUCAACCUCCAAUGCAUCCCACCACAAGAUGAUGCCUGAAGAGCCUUGGUUUUUUU | -0.228
10 | GACCAAUAUGCCCUCAGAGCUCGAGAACAUCUUCGGAUGCAGAGGAGGCAGGCUUCCGUGGCGUGAUAGCGCCAACGUCCUCAACCUCCAAUGCAUCCCACCACAUGAUGAUGCCUGAAGAGUCUUGGAUUUGUG | 1.06
11 | GACCAAUCUGCCCUCAGAGCUCGAGAACAUCUUCGGAUGCAGAGGAGGCAGGCUUAGGUGGCGCGAUAGCGACAAUGUCCUCAACCUCCAAUGCAUCCCACCACAUGAUGAUGCCGGAAGAGCCUUGGUUUUUUG | -3.97
12 | GACCAAUCUGCCCUCAGAGCACGAGAACAUCUUCGGAGGCAGAGGAGGCAGGCCUCGGAGGCGCGAUAGCGCCAACGUCCUCAACCUCCAAUGCAUCCCACCACAUGAUGAUGCCUGAAGAGCCUUGGUUUUUUG | -1.06
13 | GACCAAUCUGCCCUCAGAGCUCGAGAACAUCUUCGGCUGCAGAGGGGGAAGGCUUCGGUGGCGCGAUAGCGACAACGUCCUCAACCUCCAAUGCAUCCCACCACAUGAUGAUGCCUGAAGAGCCUUGGUUUUUUG | -0.663
14 | GACCAAUCUGCCCUCAGAGCUCGAGAACAUCUUCGGAUGCAGAGGAGGCAGGCUUCGGUGGCGCGAUAUCGCCAACGGCCUCAACCUCCAAUGCAUCCCACCACAUGAUGAAGCCUGAAGAGCCUUGGUUUUCUG | 3.16
15 | GACCAAUCUGCCCUCAGAGCUCGAGAACAUCUUCGGAUGCAGAGGAGGCAGGCUUCGGUUUCGCGAUAGCGCCAACGUCCUCAACCUCCAAUGCAUCCCACCACAUGAUGAUGCCUGAAGAGCCUUGGUUUUUUG | -1.93
16 | GACCAAUCUGCCCUCAGAGCUCGAGAACAUCUUCGGAUGCAGAGGAGGCAGGCCUCGGUGGCGCGAUAGCGCCAACUUCCUCAACCUCCAAUGCAUCCCACCACAUGAUGAUGCCUGAAGAGCCUUGGUUUUUUG | -0.352
17 | GACCAAUCUGACCUCAGAGCUCGAGAACAUCUUCGGAUGCAGAGGAGGCAGGCUUCGGUGGCGCGAUAGCGACAACGUCCUCAACCUCCAGUGCAUCCCACCACAUGAUGAUGCCUGAAGAGCCUGGGUUUUUUG | -5.33
18 | GACGUAUCUGCCCUCAGAGCUCGAGAACAUCUUCGGAUGCAGAGGAGGCAGGCUUCGGUGGCGCGAUAGCGCGAACGUCCUCAACCUCUAAUGCAUCCCAGCACAUGAUGAUGCCUGAAAAGCCUUGGUUUUUUA | -3.57
19 | GACCAAUCUGCCCUCAGAGCUCGAGAACAUCUUCGGAUGCAGAGGAGGCAGGUUUCGGUGGCGCGAUAGCGCCAAUGUCCUCAACCUCCAAUGCAUCCCACCACAUGAUGAUGCCUGAAGAGCCUUGGUUUUUUG | -0.497
20 | GACCAAUCUGCCCUCAGAGCUCGAGAACAUCUUCGGAUGCAGAGGAGGCAGGCUUAGGUGGCUCGAUAGCGCCAACGUCCUCAACCUCCAAUGCAUCCCACCACAUGAUGAUGCCUGAAGAGCCUUGGUUUUUUG | -4.97
21 | GACCAAGCUGCCCUCAGAGCUCGAGAACAUCUUCGGAUGCAGAGGAGGCAGGCUUCGGUGGCGCGAUAGAGCCAACGUCCUCAACCUCCAAUGCAUCCCUCCACAUGAUGAUGCCUGAAGAGCCUUGGUUUUUUG | -2.41
